Data on one molecule can be found in patent US20220142994A1, “Beta-Carboline Compounds And Use Thereof For The Non-Cytotoxic And Immunological Treatment Of Cancer” (AC BIOSCIENCE SA, priority 2019, published 2022).

Assay [1] concerns PD-L1 on melanoma B16 cells. The assay can be described thus: PD-L1 expression level by flow cytometry. The assay is classed as cell-based, murine. As to conditions: 5 μM harmine or 50 μg/ml interferon, 24 hours. On the procedure: Melanoma B16 cells were treated by 5 μM harmine or 50 μg/ml interferon for 24 hours. PD-L1 level was assessed by flow cytometry using the FMI mode.
This can be considered as a favourable property because PD-L1 overexpression in tumour cells is constantly associated with poorer overall survival in cancer patients.

The next assay has as its system L929 cells. Conditions: cited from earlier work.

B1: interferon gamma: interferon gamma, known to increase the MHC I density at the cell membrane; positive control (protein, UniProt P01580 23-155, looked up)
Interferon gamma: HGTVIESLESLNNYFNSSGIDVEEKSLFLDIWRNWQKDGDMKILQSQIISFYLRLFEVLKDNQAISNNISVIESHLITTFFSNSKAKKDAFMSIAKFEVNNPQVQRQAFNELIRVVHQLLPESSLRKRKRSRC
Turning to B1, in assay [1], the “PD-L1 expression at the membrane” value is listed as “huge effect”. The “fluorescent intensity (MHC class I and actin staining)” value in the assay on L929 cells (IFN-γ pre-treated cells compared to cells only) is recorded as “more fluorescent intensity”. The actin density entry in the assay with L929 cells is listed as “significant increase of actin density”.
